Experimental data: the RNAGym collection of RNA variant scans (doi:10.1073/pnas.2313332121)

B1: TPR t1 (parent)
chain: GACCAAUCUGCCCUCAGAGCUCGAGAACAUCUUCGGAUGCAGAGGAGGCAGGCUUCGGUGGCGCGAUAGCGCCAACGUCCUCAACCUCCAAUGCAUCCCACCACAUGAUGAUGCCUGAAGAGCCUUGGUUUUUUG

Variants of: B1
Assay: polymerase ribozyme fitness, log enrichment relative to wild type (log ratio); higher = more active; in vitro selection for triplet polymerase activity
How it was run: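 After PCR construction and transcription, each subunit's mutant library from a heterodimeric triplet polymerase ribozyme was annealed with a biotinylated primer, the partner subunit and triplets. Incubation was frozen, at −7 °C, and extended constructs were gel-excised, bound to streptavidin beads and amplified by RT-PCR, in one selection round done in triplicate. Fitness is the logarithm of a genotype's enrichment divided by that of the wild type, from inverse-variance-weighted replicate averages of Illumina-sequenced inputs and outputs. The base of the logarithm is 2, and genotypes needed ≥10 input reads and ≥1 read per output.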

**Q.** For C94U G117U, which “polymerase ribozyme fitness (log ratio)” value is on record?
**A.** 0.0636

**Q.** Which “polymerase ribozyme fitness (log ratio)” value does the source give for A6U U7C C70A C76G here?
**A.** -2.57

**Q.** For C89A U112A, which “polymerase ribozyme fitness (log ratio)” value is on record?
**A.** -1.53

**Q.** For A50C C53U C72U G127A U133A, which “polymerase ribozyme fitness (log ratio)” value is on record?
**A.** -3.63

**Q.** For G58C G71U A74G C85A A90C, which “polymerase ribozyme fitness (log ratio)” value is on record?
**A.** -3.43

**Q.** For C80U G117A U133G, which “polymerase ribozyme fitness (log ratio)” value is on record?
**A.** -1.17

**Q.** Which “polymerase ribozyme fitness (log ratio)” value does the source give for G10C A37C A66U here?
**A.** -2.37

**Q.** Which “polymerase ribozyme fitness (log ratio)” value does the source give for C70A C86A U87G here?
**A.** -2.94

**Q.** For G45U G52U G61C, which “polymerase ribozyme fitness (log ratio)” value is on record?
**A.** -2.32

**Q.** With G36C G51A C101U as the variant, how does the “polymerase ribozyme fitness (log ratio)” value read?
**A.** -3.92

**Q.** With C49U A68G A84C U131A as the variant, how does the “polymerase ribozyme fitness (log ratio)” value read?
**A.** -4.91

**Q.** For A2U C22G U33C C34A, which “polymerase ribozyme fitness (log ratio)” value is on record?
**A.** -5.51

**Q.** Which “polymerase ribozyme fitness (log ratio)” value does the source give for A46C C56A C73A A91U C97U here?
**A.** -4.49

**Q.** Which “polymerase ribozyme fitness (log ratio)” value does the source give for A2U U131G here?
**A.** -2.07

**Q.** Which “polymerase ribozyme fitness (log ratio)” value does the source give for G42U C72U here?
**A.** -1.64

**Q.** Which “polymerase ribozyme fitness (log ratio)” value does the source give for C8U G117U here?
**A.** -1.38

**Q.** Which “polymerase ribozyme fitness (log ratio)” value does the source give for C34A C40U A41U C101A C114A G120A here?
**A.** -6.72

**Q.** With G44U G113C U130A as the variant, how does the “polymerase ribozyme fitness (log ratio)” value read?
**A.** -2.45

**Q.** With G52C C56U C82U A84C as the variant, how does the “polymerase ribozyme fitness (log ratio)” value read?
**A.** 0.272

**Q.** For A6U G36C A37G A43G, which “polymerase ribozyme fitness (log ratio)” value is on record?
**A.** -2.57

**Q.** Which “polymerase ribozyme fitness (log ratio)” value does the source give for U54G A84C here?
**A.** -0.587

**Q.** With G69U G117C as the variant, how does the “polymerase ribozyme fitness (log ratio)” value read?
**A.** -2.27

**Q.** Which “polymerase ribozyme fitness (log ratio)” value does the source give for A41C G45U C124A U126G here?
**A.** -1.66

**Q.** With A50G G69U C86G as the variant, how does the “polymerase ribozyme fitness (log ratio)” value read?
**A.** -0.754

**Q.** With A2U C94U C104U as the variant, how does the “polymerase ribozyme fitness (log ratio)” value read?
**A.** -2.44

**Q.** With C53U C123G as the variant, how does the “polymerase ribozyme fitness (log ratio)” value read?
**A.** 1.61

**Q.** With G71C A90G as the variant, how does the “polymerase ribozyme fitness (log ratio)” value read?
**A.** -0.94

**Q.** Which “polymerase ribozyme fitness (log ratio)” value does the source give for C8U G10C C13A C34A C40U C98G A103C here?
**A.** -3.92

**Q.** With C53G G113A as the variant, how does the “polymerase ribozyme fitness (log ratio)” value read?
**A.** -1.24

**Q.** With C28U C49G U129A as the variant, how does the “polymerase ribozyme fitness (log ratio)” value read?
**A.** -5.15

**Q.** For A111C G113U, which “polymerase ribozyme fitness (log ratio)” value is on record?
**A.** -3.68

**Q.** For C28U A29G, which “polymerase ribozyme fitness (log ratio)” value is on record?
**A.** -5.97

**Q.** Which “polymerase ribozyme fitness (log ratio)” value does the source give for U38G A90U here?
**A.** -1.61

**Q.** For U54C C124U, which “polymerase ribozyme fitness (log ratio)” value is on record?
**A.** 1.81

**Q.** With A95U U109A U130G as the variant, how does the “polymerase ribozyme fitness (log ratio)” value read?
**A.** -6.07

**Q.** With G19C C72G as the variant, how does the “polymerase ribozyme fitness (log ratio)” value read?
**A.** -3.09

**Q.** With A46G A108G G117A as the variant, how does the “polymerase ribozyme fitness (log ratio)” value read?
**A.** -4.03

**Q.** With C28A A43U C86G as the variant, how does the “polymerase ribozyme fitness (log ratio)” value read?
**A.** -5.44

**Q.** Which “polymerase ribozyme fitness (log ratio)” value does the source give for C28G G48A A83C A84C here?
**A.** -3.22

**Q.** For C56A C99U C102U, which “polymerase ribozyme fitness (log ratio)” value is on record?
**A.** -5.77

**Q.** Which “polymerase ribozyme fitness (log ratio)” value does the source give for G60A G93A A121U here?
**A.** 1.81

**Q.** With A46C G60U as the variant, how does the “polymerase ribozyme fitness (log ratio)” value read?
**A.** -0.736

**Q.** Which “polymerase ribozyme fitness (log ratio)” value does the source give for U9A G107U G117C here?
**A.** -6.35

**Q.** With A29G G42C as the variant, how does the “polymerase ribozyme fitness (log ratio)” value read?
**A.** -2.66

**Q.** For C15A A46C, which “polymerase ribozyme fitness (log ratio)” value is on record?
**A.** -3.02

**Q.** Which “polymerase ribozyme fitness (log ratio)” value does the source give for G36C C49A C53A G61C C76U A119G here?
**A.** -6.33

**Q.** Which “polymerase ribozyme fitness (log ratio)” value does the source give for C49U A119U C123U here?
**A.** 0.0952

**Q.** Which “polymerase ribozyme fitness (log ratio)” value does the source give for C13G G63C U112C G127C U129A here?
**A.** -2.13

**Q.** Which “polymerase ribozyme fitness (log ratio)” value does the source give for C3U A41C U125A U126C here?
**A.** -3.37

**Q.** With G69U C72G U78G U129C as the variant, how does the “polymerase ribozyme fitness (log ratio)” value read?
**A.** -1.86

**Q.** Which “polymerase ribozyme fitness (log ratio)” value does the source give for U106A G117C here?
**A.** -1.94

**Q.** Which “polymerase ribozyme fitness (log ratio)” value does the source give for A5U C64U C79U G110A A111G U130C here?
**A.** -0.201

**Q.** With G17A C72G as the variant, how does the “polymerase ribozyme fitness (log ratio)” value read?
**A.** -3.28

**Q.** With G69A C114U as the variant, how does the “polymerase ribozyme fitness (log ratio)” value read?
**A.** -5.33

**Q.** Which “polymerase ribozyme fitness (log ratio)” value does the source give for G10A C85U here?
**A.** -0.189

**Q.** With A50G U116A as the variant, how does the “polymerase ribozyme fitness (log ratio)” value read?
**A.** -3.15

**Q.** For G44A G45U G77A U129C, which “polymerase ribozyme fitness (log ratio)” value is on record?
**A.** -3.02

**Q.** With C12G G60A C115G as the variant, how does the “polymerase ribozyme fitness (log ratio)” value read?
**A.** -4.95

**Q.** Which “polymerase ribozyme fitness (log ratio)” value does the source give for C11A G42U U106A here?
**A.** -3.49

**Q.** Which “polymerase ribozyme fitness (log ratio)” value does the source give for G61A G93A A105G G122A here?
**A.** -5.32

**Q.** With A2G C34U as the variant, how does the “polymerase ribozyme fitness (log ratio)” value read?
**A.** -4.37

**Q.** For U7A C34A G61U C97U, which “polymerase ribozyme fitness (log ratio)” value is on record?
**A.** -2.06

**Q.** For C13G A18G, which “polymerase ribozyme fitness (log ratio)” value is on record?
**A.** -5.42

**Q.** Which “polymerase ribozyme fitness (log ratio)” value does the source give for U7G C22U C101A C114A A118U A119U here?
**A.** -5.29

**Q.** For C85U U132A, which “polymerase ribozyme fitness (log ratio)” value is on record?
**A.** -1.56

**Q.** For G47C C64U A90C C104U, which “polymerase ribozyme fitness (log ratio)” value is on record?
**A.** -2.77

**Q.** With G36U C40G as the variant, how does the “polymerase ribozyme fitness (log ratio)” value read?
**A.** -2.33

**Q.** With U14C U54G G93C C104U U116G as the variant, how does the “polymerase ribozyme fitness (log ratio)” value read?
**A.** -3.88

**Q.** With C11G U33G G93U U112A G122U as the variant, how does the “polymerase ribozyme fitness (log ratio)” value read?
**A.** -6.28

**Q.** For A43C G44U, which “polymerase ribozyme fitness (log ratio)” value is on record?
**A.** -2.14

**Q.** With C20U C124U as the variant, how does the “polymerase ribozyme fitness (log ratio)” value read?
**A.** -0.364

**Q.** With C12U U109C as the variant, how does the “polymerase ribozyme fitness (log ratio)” value read?
**A.** -2.5

**Q.** With A50C G52C C56G G63A G77U as the variant, how does the “polymerase ribozyme fitness (log ratio)” value read?
**A.** -6.51

**Q.** Which “polymerase ribozyme fitness (log ratio)” value does the source give for G42C C56U C124A here?
**A.** 0.861

**Q.** With C15G G17U C40U as the variant, how does the “polymerase ribozyme fitness (log ratio)” value read?
**A.** -4.85

**Q.** Which “polymerase ribozyme fitness (log ratio)” value does the source give for U32C C97A C124U U131A here?
**A.** -4.33

**Q.** Which “polymerase ribozyme fitness (log ratio)” value does the source give for U106A G127C here?
**A.** -3.2

**Q.** With C3U G47U A105G as the variant, how does the “polymerase ribozyme fitness (log ratio)” value read?
**A.** -4.56

**Q.** Which “polymerase ribozyme fitness (log ratio)” value does the source give for G10A C22U C34U C72A C115G A121C G122U here?
**A.** -8.04

**Q.** With C22U G63C G120U as the variant, how does the “polymerase ribozyme fitness (log ratio)” value read?
**A.** -4.89

**Q.** For G48C C104A C124A, which “polymerase ribozyme fitness (log ratio)” value is on record?
**A.** -0.812

**Q.** For U9G U38G A105U, which “polymerase ribozyme fitness (log ratio)” value is on record?
**A.** -2.64

**Q.** With C34U C79U U130C as the variant, how does the “polymerase ribozyme fitness (log ratio)” value read?
**A.** -5.4
